Source: PMC5615076, “Prolonged seizure activity causes caspase dependent cleavage and dysfunction of G-protein activated inwardly rectifying potassium channels” (Scientific Reports, 2017)

Target: T1, Gβ1γ2 tagged with yellow fluorescent proteins (YFP-Gβ1 and YFP-Gγ2) (UniProt P62873 1-340; P59768 1-71)
T1 construct: G protein subunit beta-1 (Gβ1), from plasmid pcDNA3.1-YFP-G-protein Gβ1 (gift of N. Gautam); G protein subunit gamma-2 (Gγ2), from plasmid pcDNA3.1-YFP-G-protein-Gγ2 (gift of N. Gautam); Both chains co-expressed and precipitated together with anti-GFP antibodies; also called Gβγ; source: HEK293T, transfected (pcDNA3.1-YFP-G-protein Gβ1 and pcDNA3.1-YFP-G-protein-Gγ2), in lysate
Experiment: co-IP; HEK293T cells co-transfected with YFP-Gβ1, YFP-Gγ2 and GIRK2A WT or Y353X (doubled plasmid for Y353X); IP 24 h after transfection with mouse anti-GFP antibodies and Protein A/G agarose; blot with anti-GIRK2 N-terminal antibodies; band ratio GIRK2A/YFP-Gβ1 normalised to GIRK2A WT
Conditions: partners not purified

B1: GIRK2A-Y353X (domain or fragment)
chain: MTMAKLTESMTNVLEGDSMDQDVESPVAIHQPKLPKQARDDLPRHISRDRTKRKIQRYVRKDGKCNVHHGNVRETYRYLTDIFTTLVDLKWRFNLLIFVMVYTVTWLFFGMIWWLIAYIRGDMDHIEDPSWTPCVTNLNGFVSAFLFSIETETTIGYGYRVITDKCPEGIILLLIQSVLGSIVNAFMVGCMFVKISQPKKRAETLVFSTHAVISMRDGKLCLMFRVGDLRNSHIVEASIRAKLIKSKQTSEGEFIPLNQSDINVGYYTGDDRLFLVSPLIISHEINQQSPFWEISKAQLPKEELEIVVILEGIVEATGMTCQARSSYITSEILWGYRFTPVLTMEDGFYEVD
notes: GIRK2A (Kir3.2, cDNA NM_010606.2) with Y353 mutated to a stop codon, so the chain ends at D352 of the 349YEVD352 motif; mimics GIRK2A cleaved by caspase-3; Untagged; made by QuikChange mutagenesis of pcDNA3-GIRK2A; also called GIRK2-Y353X; truncated GIRK2A-Y353X; source: HEK293T, transfected (FuGENE6, pcDNA3-GIRK2A Y353X, doubled amount of plasmid), in lysate
How did the “coimmunoprecipitation, % of wild-type GIRK2A” value turn out when B1 was run?
Its value is 50 % of wild-type GIRK2A.
